Test results published in patent US20260070986A1 (AFFIMED, published 2026).

Columns and labels:
[1] = target: T1, human CD16A (158F) on transfected CHO cells (cAg_34) (human, UniProt P08637 17-254); assay: flow cytometry on huCD16A (158F)-transfected CHO cells (cAg_34), anti-human IgG-FITC detection
T1 construct: Exact cell-anchored construct not described; also called huCD16A
Protocol: (§1) After washing in FACS buffer, cells were incubated in 50 μL FACS buffer without antibodies or with titrated antibodies starting at a concentration of 1000 nM followed by elven 3-fold serial dilutions for 40-50 min on ice in the dark. After washing twice, cells were incubated with FITC-conjugated goat anti-human IgG (H+L) (Jackson Immunologies, cat.: 109-096-088) for 40-50 min on ice in the dark. […] After washing, binding was measured by flow cytometry and mean fluorescence intensities (MFI) of cell samples were calculated and corrected for background staining using control cells stained with secondary antibodies only.

[2] = target: T1, human CD16A (158F) on transfected CHO …; assay: flow cytometry on huCD16A (158F) CHO cells (cAg_34), one-site fit of MFI, mean
Protocol: (§2) After washing twice, cells were incubated with FITC-conjugated goat anti-human IgG (H+L) (Jackson Immunologies, cat.: 109-096-088) for 40-50 min on ice in the dark. […] After washing, binding was measured by flow cytometry and mean fluorescence intensities (MFI) of cell samples were calculated and corrected for background staining using control cells stained with secondary antibodies only.
(§3) Equilibrium dissociation constants (KD) of antibody binding were calculated by plotting MFI values and fitting a non-linear regression model for one-site binding to hyperbolic dose-response curves using GraphPad Prism.

[3] = target: T2, cynomolgus CD16 on transfected CHO cells (cAg_36) (cynomolgus, UniProt Q8SPW2 17-254); assay: flow cytometry on cyCD16 CHO cells (cAg_36), one-site fit of MFI, mean
T2 construct: whole, on cells; also called cyCD16
Protocol: as §1, §3

[4] = target: T2, cynomolgus CD16 on transfected CHO …; assay: flow cytometry on cyCD16 CHO cells (cAg_36), one-site fit of MFI, Exp. 2
Protocol: as §1, §3

[5] = target: T1, human CD16A (158F) on transfected CHO …; assay: flow cytometry on huCD16A (158F) CHO cells (cAg_34), one-site fit of MFI, Exp. 3
Protocol: as §2, §3

[6] = target: T2, cynomolgus CD16 on transfected CHO …; assay: flow cytometry on cyCD16 CHO cells (cAg_36), one-site fit of MFI, Exp. 1
Protocol: as §2, §3

[7] = target: T2, cynomolgus CD16 on transfected CHO …; assay: flow cytometry on cyCD16-transfected CHO cells (cAg_36), anti-human IgG-FITC detection
Protocol: as §1

[8] = target: T1, human CD16A (158F) on transfected CHO …; assay: flow cytometry on huCD16A (158F) CHO cells (cAg_34), one-site fit of MFI, Exp. 1
Protocol: as §2, §3

[9] = target: T2, cynomolgus CD16 on transfected CHO …; assay: flow cytometry on cyCD16 CHO cells (cAg_36), one-site fit of MFI, Exp. 3
Protocol: as §2, §3

[10] = target: T1, human CD16A (158F) on transfected CHO …; assay: flow cytometry on huCD16A (158F) CHO cells (cAg_34), one-site fit of MFI, Exp. 2
Protocol: as §2, §3

T2 sequence (Q8SPW2 17-254): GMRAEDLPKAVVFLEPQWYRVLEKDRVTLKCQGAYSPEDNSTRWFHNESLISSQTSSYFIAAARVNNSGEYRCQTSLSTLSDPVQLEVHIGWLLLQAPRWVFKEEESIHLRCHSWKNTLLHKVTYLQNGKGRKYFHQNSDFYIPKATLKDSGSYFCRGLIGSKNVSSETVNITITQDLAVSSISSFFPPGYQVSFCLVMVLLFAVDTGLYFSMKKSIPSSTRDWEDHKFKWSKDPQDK
T1 sequence (P08637 17-254 limits assumed): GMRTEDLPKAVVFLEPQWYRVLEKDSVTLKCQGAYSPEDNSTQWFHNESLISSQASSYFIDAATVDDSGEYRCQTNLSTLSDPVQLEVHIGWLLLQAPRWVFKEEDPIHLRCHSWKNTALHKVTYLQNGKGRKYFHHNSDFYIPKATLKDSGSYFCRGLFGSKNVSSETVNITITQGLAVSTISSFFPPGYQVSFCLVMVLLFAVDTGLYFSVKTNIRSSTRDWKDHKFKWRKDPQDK

B1: scFv-IgAb_381 (Target specificity x CD16A, CD16a4) (bispecific antibody)
chain 1: EVQLVESGGGVVQPGRSLRLSCSASGFTFSGYGLSWVRQAPGKGLEWVAMISSGGSYTYYADSVKGRFAISRDNAKNTLFLQMDSLRPEDTGVYFCARHGDDPAWFAYWGQGTPVTVSSASTKGPSVFPLAPSSKSTSGGTAALGCLVKDYFPEPVTVSWNSGALTSGVHTFPAVLQSSGLYSLSSVVTVPSSSLGTQTYICNVNHKPSNTKVDKKVEPKSCDKTHTCPPCPAPEFEGGPSVFLFPPKPKDTLMISRTPEVTCVVVAVSHEDPEVKFNWYVDGVEVHNAKTKPREEQYNSTYRVVSVLTVLHQDWLNGKEYKCKVSNKALPAPIEKTISKAKGQPREPQVYTLPPSREEMTKNQVSLTCLVKGFYPSDIAVEWESNGQPENNYKTTPPVLDSDGSFFLYSKLTVDKSRWQQGNVFSCSVMHEALHNHYTQKSLSLSPGGGGGSGGGGSGGGGSGGGGSGGGGSGGGGSSYELTQPLSVSVALGQTARITCGGHNIGSKNVHWYQQKPGQAPVLVIYQDNKRPSGIPERFSGSNSGNTATLTISRAQAGDEADYYCQVWDNYNVLFGCGTKLTVLGGSGGSGGSGGSGGSGGSGGSQVQLVQSGAEVKKPGASVKVSCKASGYTFTSYYMHWVRQAPGQCLEWMGAIEPTYGSTSYAQKFQGRVTMTRDTSTSTVYMELSSLRSEDTAVYYCARGSAYYYDFADYWGQGTLVTVS
chain 2: DIQLTQSPSSLSASVGDRVTITCSVSSSISSNNLHWYQQKPGKAPKPWIYGTSNLASGVPSRFSGSGSGTDYTFTISSLQPEDIATYYCQQWSSYPYMYTFGQGTKVEIKRTVAAPSVFIFPPSDEQLKSGTASVVCLLNNFYPREAKVQWKVDNALQSGNSQESVTEQDSKDSTYSLSSTLTLSKADYEKHKVYACEVTHQGLSSPVTKSFNRGEC
EC50 (read off the curve) [1]: ~30 nM
Kd [2]: 26.2 nM
Kd [3]: 32.8 nM
Kd [4]: 31.7 nM
Kd [5]: 27.1 nM
Kd [6]: 38.6 nM
EC50 (read off the curve) [7]: ~40 nM
Kd [8]: 22.1 nM
Kd [9]: 28.2 nM
Kd [10]: 29.3 nM
